Reference: patent publication US20070166779

How the values were obtained:
recombinant human SLPI = molecular target: T1, recombinant human SLPI
T1 chain: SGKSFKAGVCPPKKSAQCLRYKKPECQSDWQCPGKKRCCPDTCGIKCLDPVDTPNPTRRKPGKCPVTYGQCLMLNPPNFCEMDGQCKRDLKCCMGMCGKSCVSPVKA

[1] = molecular target: T2, SLPI present in human saliva
T2 chain: T1 chain

B1: cathepsin G (protein)
chain: IIGGRESRPHSRPYMAYLQIQSPAGQSRCGGFLVREDFVLTAAHCWGSNINVTLGAHNIQRRENTQQHITARRAIRHPQYNQRTIQNDIMLLQLSRRVRRNRNVNPVALPRAQEGLRPGTLCTVAGWGRVSMRRGTDTLREVQLRVQRDRQCLRIFGSYDPRRQICVGDRRERKAAFKGDSGGPLLCNNVAHGIVSYGKSSGVPPEVFTRVSSFLPWIRTTMRS
Recombinant human SLPI
  cleavage of rSLPI, LC/MS (1 ug rSLPI, 50 ng protease, 5 hours): did not result in the formation of the second peak
  cleavage of the reduced form of rSLPI: Reduction of the rSLPI samples in the presence of the proteases did result in cleavage of the SLPI protein
[1]
  cleavage of SLPI in human saliva, Western analysis: The larger SLPI cleavage product was not observed when the saliva samples were incubated with cathepsin G, tryptase and proteinase 3

B2: elastase (protein)
chain: IVGGRRARPHAWPFMVSLQLRGGHFCGATLIAPNFVMSAAHCVANVNVRAVRVVLGAHNLSRREPTRQVFAVQRIFENGYDPVNLLNDIVILQLNGSATINANVQVAQLPAQGRRLGNGVQCLAMGWGLLGRNRGIASVLQELNVTVVTSLCRRSNVCTLVRGRQAGVCFGDSGSPLVCNGLIHGIASFVRGGCASGLYPDAFAPVAQFVNWIDSIIQ
Recombinant human SLPI
  cleavage of rSLPI, LC/MS (1 ug rSLPI, 50 ng protease, 5 hours): did not result in the formation of the second peak
  cleavage of the reduced form of rSLPI: Reduction of the rSLPI samples in the presence of the proteases did result in cleavage of the SLPI protein
[1]
  cleavage of SLPI in human saliva, Western analysis: Minor digestion of SLPI was observed after the saliva was incubated with elastase

B3: human chymase (protein)
chain: IIGGTECKPHSRPYMAYLEIVTSNGPSKFCGGFLIRRNFVLTAAHCAGRSITVTLGAHNITEEEDTWQKLEVIKQFRHPKYNTSTLHHDIMLLKLKEKASLTLAVGTLPFPSQFNFVPPGRMCRVAGWGRTGVLKPGSDTLQEVKLRLMDPQACSHFRDFDHNLQLCVGNPRKTKSAFKGDSGGPLLCAGVAQGIVSYGRSDAKPPAVFTRISHYRPWINQILQAN
Recombinant human SLPI
  cleavage of rSLPI at ten-fold excess of rSLPI (data not shown): Even in a ten-fold excess of rSLPI to chymase most of the rSLPI protein was cleaved
  cleavage of rSLPI, LC/MS (second peak with additional 18 mass units): the presence of the second peak indicated that chymase indeed cleaved rSLPI
  cleavage of rSLPI, SDS-PAGE with Coomassie stain (rSLPI:chymase molar ratio 40:1, 37 C): cleavage of recombinant human SLPI was observed after rSLPI was incubated with human chymase for about 20 minutes
[1]
  cleavage of SLPI in human saliva, Western analysis: exogenous chymase cleaved SLPI in the saliva sample as it did with the rSLPI

B4: proteinase 3 (protein)
chain: IVGGHEAQPHSRPYMASLQMRGNPGSHFCGGTLIHPSFVLTAAHCLRDIPQRLVNVVLGAHNVRTQEPTQQHFSVAQVFLNNYDAENKLNDVLLIQLSSPANLSASVATVQLPQQDQPVPHGTQCLAMGWGRVGAHDPPAQVLQELNVTVVTFFCRPHNICTFVPRRKAGICFGDSGGPLICDGIIQGIDSFVIWGCATRLFPDFFTRVALYVDWIRSTLR
Recombinant human SLPI
  cleavage of rSLPI, LC/MS (1 ug rSLPI, 50 ng protease, 5 hours): did not result in the formation of the second peak
  cleavage of the reduced form of rSLPI: Reduction of the rSLPI samples in the presence of the proteases did result in cleavage of the SLPI protein
[1]
  cleavage of SLPI in human saliva, Western analysis: The larger SLPI cleavage product was not observed when the saliva samples were incubated with cathepsin G, tryptase and proteinase 3
